Measured values taken from patent CN114456266A (dated 2022).
Ends that are not written are not given here.

T1: GST fusion with RAD21 cleavage site 2 peptide IEEPSR at the COOH terminus (also: fused to GST at N-terminal side)
T1 construct: E. coli extract of GST fused to the peptide near the RAD21 cleavage site; also called 肽段IEEPSR(切割位点2); not shown: GST (glutathione S-transferase) fusion partner, expressed in E. coli
T1 chain: {GST}-IEEPSR

T2: RAD21*M (predicted separase cleavage fragment of RAD21, recombinant, expressed in HEK-293 cells) (UniProt O60216 173-450)
T2 construct: domain: RAD21*M; Transiently expressed from a plasmid in HEK-293
T2 sequence (looked up): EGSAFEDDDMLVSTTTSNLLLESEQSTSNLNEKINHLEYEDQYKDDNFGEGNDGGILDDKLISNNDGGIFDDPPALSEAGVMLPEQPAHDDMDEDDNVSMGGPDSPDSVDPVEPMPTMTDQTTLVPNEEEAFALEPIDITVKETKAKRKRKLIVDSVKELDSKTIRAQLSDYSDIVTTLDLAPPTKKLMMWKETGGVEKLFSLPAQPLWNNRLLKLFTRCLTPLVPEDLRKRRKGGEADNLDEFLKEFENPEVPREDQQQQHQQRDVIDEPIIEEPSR

T3: GST fusion with REC8 cleavage site 2 peptide PSEIEVPR at the COOH terminus (also: fused to GST at N-terminal side)
T3 construct: not shown: GST (glutathione S-transferase) fusion partner, expressed in E. coli
T3 chain: {GST}-PSEIEVPR


What was measured:
[1] = target: T1, GST fusion with RAD21 cleavage site 2 …; experiment: immunoblot, hybridoma ascites on E. coli extracts of GST-peptide fusions
[2] = target: T2, RAD21*M (predicted separase cleavage …); experiment: immunoprecipitation by the standard ChIP procedure of recombinant protein from HEK-293 extracts
[3] = target: T3, GST fusion with REC8 cleavage site 2 …; experiment: immunoblot, hybridoma ascites on E. coli extracts of GST-peptide fusions

binding result [1] | binding result [2] | binding result [3] | Binder
binds | binds |  | 抗RAD21新表位单克隆抗体IB22-S (antibody, mouse IgG2a, kappa, V domains shown, Mouse hybridoma antibody (ascites used in blots); also called 1B22s) VH: EVQLVESGGGLVQPRGSLKLSCAASGFTFNNYAMNWVRQAPGKGLEWVARIRSKSKNYAIYYADSVKDRFTISRDDSQTMLYLQMNNLKTEDTGMYYCVAPSYSGSSPFAYWGQGTLVTVSA VL: DVLMTQTPLSLPVSLGDQASISCRSSQSFVHSNGNTYLEWYLQKPGQSPKLLIYKVSNRFSGVPDRFSGSGSGTDFTLKISRVEAEDLGVYYCFQGSHVPFTFGSGTKLEIKR
 |  | binds | 抗REC8新表位单克隆抗体IE22-D (antibody, V domains shown, Mouse hybridoma antibody (ascites used in blots); also called 1E22d) VH: EVQLQQSGAEVVKPGASVKLSCTASGFNIKDTYMHWVNQRPEQGLEWIGRNDPANGNSKYDPKFQGKATITADTSSNTAYLQLSSLTSEDTAVYYCARGVRQGAWFAYWGQGTLVTVSA VL: DVLMTQTPLSLPVSLGDQASISCRSSQSIVHSNGNTYLEWYLQKPGQSPKLLIYKVSNRFSGVPDRFSGSGSGTDFTLKISRVEAEDLGVYYCFQGSHVFTFGAGTKLELKR
